Series [1] is described as follows: melting temperature (DSF); higher = more thermostable. The essentials:
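Values are melting temperatures from differential scanning fluorimetry. Candidate enzymes were expressed in E. coli C41(DE3), purified on nickel beads and freed by SUMO protease cleavage. In sealed PCR plates on a Bio-Rad CFX96, 45 μL enzyme (0 to 0.3 mg/mL) was combined with 5 μL 5X Sypro Orange. Fluorescence was recorded from 25 °C for 250 cycles, rising 0.3 °C per cycle at a ramp of 0.3 °C/s.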

Series [2] is described as follows: purified protein yield per well (BCA); higher = higher soluble expression. In a few lines:
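Expression was done in E. coli C41(DE3), using 2 mL autoinduction cultures with 100 µg/mL kanamycin incubated at 37 °C for 2 h and at 18 °C for 40 h. Protein was purified on Ni-charged magnetic beads and released by SUMO protease cleavage. Yield of purified protein per well was measured with the Pierce Rapid Gold BCA kit; values below 25 ug (0.1 mg/mL) are below detection.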

Series [3] in a line: PET hydrolysis, aromatic products released after 48 h (umol product/mg enzyme); higher = more PET depolymerization activity. The essentials: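 Amorphous PET film or crystalline PET powder (3.5 mg) in 450 μL of 50 mM NaCitrate (pH 4.5, 5.5), 50 mM NaPhosphate (pH 6.5, 7.5) or glycine (pH 8.5) received 5 μg (50 μL) of candidate enzyme. That enzyme was purified on nickel beads and freed of its tag by SUMO cleavage. After 48 h at 40 or 60 °C in sealed plates without shaking, absorbance of the supernatant at 260 and 280 nm was read against buffer blanks. PET hydrolysis activity is this aromatic product expressed per mg enzyme.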

The mark [4] stands for this setting: substrate: cryPow, 40 °C, pH 5.5.
The mark [5] stands for this setting: substrate: cryPow, 40 °C, pH 6.5.
[6] abbreviates: substrate: cryPow, 40 °C, pH 7.5.
Setting [7] is: substrate: cryPow, 60 °C, pH 5.5.
Setting [8] is: substrate: cryPow, 60 °C, pH 6.5.
The mark [9] stands for this setting: substrate: cryPow, 60 °C, pH 7.5.
Setting [10] is: substrate: aFilm, 40 °C, pH 4.5.
Setting [11] is: substrate: aFilm, 40 °C, pH 5.5.
Setting [12] is: substrate: aFilm, 40 °C, pH 6.5.
Where [13] appears, read: substrate: aFilm, 40 °C, pH 7.5.
The mark [14] stands for this setting: substrate: aFilm, 60 °C, pH 4.5.
[15] abbreviates: substrate: aFilm, 60 °C, pH 5.5.
[16] abbreviates: substrate: aFilm, 60 °C, pH 6.5.
Where [17] appears, read: substrate: aFilm, 60 °C, pH 7.5.
Setting [18] is: substrate: cryPow, 40 °C, pH 4.5.
[19] abbreviates: substrate: cryPow, 60 °C, pH 4.5.

± gives the standard deviation of the averaged measurements.

Consider “MAAGPAAVAADNPYQRGPDPTPASVAAPNGPFATAQVSVPPGYGFNGGMIYYPTDTSQGTFGAIAISPGYTALFSVELAWMGPRLASQGFVVIGIETNDRNDFDTARGTQLLAALDYLTGQSSVRSRVDPNRLAVAGHSMGGGGAFSAALRRPALKAAVGFTPFSPSQNLTNMQVPALLYSGQYDTVTTPSSVSNLYNGLPSTTEGAYIEAAGLDHSFPTRPNTLLMRTMIPWVKIFLDNDLRYTQFLCPLMDSSGVLQYRNTCPLVPPGLPSPSPTTAPPTTAPPTTAPPPTTAPPPTTAPPPTTAPPPTTNPPAGACSVSYTTNQWPGGFTRDVRITNTGGSVSSWTLAFTAGSNVSLSNGWNGDWSQSGSQITVRNAAWNGSLASGATVSIGFQGTFSGSTLPPLSNITLNGAACAS [DP068]”, for which the melting temperature in series [1] came to 63.4 C. Further, the “purified protein yield per well” value in series [2] is 60 µg. The PET hydrolysis was 3 in series [3] (setting [4]); 21 in series [3] (setting [5]); 36 in series [3] (setting [6]); 52 in series [3] (substrate: cryPow, 40 °C, pH 8.5); less than 3 in series [3] (setting [7]); 7 in series [3] (setting [8]). Further, the PET hydrolysis was 17 in series [3] (setting [9]) and 20 in series [3] (substrate: cryPow, 60 °C, pH 8.5).
“MAENPYERGPAPTTSSIEASRGSFATSTVTVSRLAVSGFGGGTIYYPTSTTAGTFGAISIAPGFTALQSSIAWLGPRLASQGFVVFTIDTLTTSDQPDSRGRQLLAALDYLTQQSSVRSRIDSSRLGVVGHSMGGGGTLEAARSRPSLQAAIPLTGWNLTKTWSTVRVPTLVVGAQADTVAPVASHSIPFYNSLPSSLDKAYLELRGASHFAPNSSNTTIAKYTLSWLKRFIDNDTRYEQFLCPIPSTSLSISDYRGNCPHNG [TEP182]” had a melting temperature in series [1] of 53.5 C. Further, the “purified protein yield per well” value in series [2] came to 290 µg. Moreover, the PET hydrolysis in series [3] (setting [10]), in series [3] (setting [11]), in series [3] (setting [12]), in series [3] (setting [13]), in series [3] (setting [14]) and in series [3] (setting [15]) was less than 3 throughout. Moreover, the PET hydrolysis in series [3] (setting [16]) was less than 3; in series [3] (setting [17]) it was less than 3; in series [3] (setting [18]), less than 3; in series [3] (setting [4]), 6; in series [3] (setting [5]), 11; in series [3] (setting [6]) it was 17.5 ± 2.1. The PET hydrolysis is less than 3 in series [3] (setting [19]), 4 in series [3] (setting [7]), 12.5 ± 0.71 in series [3] (setting [8]) and 15.5 ± 0.71 in series [3] (setting [9]).
The sequence “MAGAAGWPSTASAADNPYQRGPAPTAASIAADRGPFATAQVTVPRGNGFGGGVIYYPTDTSQGTFGAIAIAPGFSTAWSYYAWQGPRLASFGFVVIGIETNTLNDYADARAAQLLAALDYLVNSSSVRDRVDRNRLAVGGHSMGGGGAILAANQRPSLLTAVGQAPYVPDGSLSGIKSPTIIFAGQTDGTVTPQYAQNAYNTIPGSVERAYVEIANEGHGFPAGGGGGNSGAFARTMMIWLKLFVDKDTRYAPFLCPALTNANGISKYMASCPLDPPGGGPTASPTSTPTSTPTSTPTGSPPTGSTSSLRGVASGRCLDVNGASQSNGATVLIWDCNGQSNQKWTSTSASELRVYGGKCLDVNGGGTADGTAVIIWDCNGQNNQKWRFNSDSSITAVGANKCLDVSANGTANGTRVQIWSCTGGGNQKWTRV [ESM024]” yielded a melting temperature in series [1] of 62.8 C. The “purified protein yield per well” value in series [2] was found to be 86.8 µg. In addition, the PET hydrolysis was less than 3 in series [3] (setting [18]), less than 3 in series [3] (setting [4]), 3 in series [3] (setting [5]) and 4 in series [3] (setting [6]).
“MAQTSSCSLMGDVDGSGAIDIVDALLVAQAYVGLNPANYNDACADVDCSDSANIVDALLVAQLYVGLISSFPCEVTPEPTGVSTPTPGGAISIACGSSSAVGSFQADEYYSGGSTYNNSNTVDVSLITDNPPPAALFNNERYGEMSYTIPGFTAGGTYAVTLYFAETYLTSSGSRQFNVSINGTAVLSSFDIYAAAGGQNRAVARAFTTTADSGGQIVIQFTSVTENPKINGISIQAGTAPTPGPTATPGPTSENPYERGPDPSLESVAASRGTFATAELTLSPGNGFGGGFIYYPTDTSLGTWAAVAICPGYTAKFANEETWMGHWLASFGFVVIGIETNTTTDSVDARGTQLLAALDYLTQQSAVRDRVDPDRLMVMGHSAGGGGAFTAAVQRSSLKTVVGLAPASASNMGSLRMPVMIISGQYDDVITPSYINGIWTSLSPTIQRAWIELANNDHLSFTRSNSTEMRVLIPWMKIFLDNDTRYTQFLCPLADSSGISKYENSCPLVP [TEP011]” displayed a melting temperature in series [1] of 64.6 C. Further, the “purified protein yield per well” value in series [2] stood at 30.6 µg. In addition, the PET hydrolysis in series [3] (setting [18]), in series [3] (setting [4]), in series [3] (setting [5]) and in series [3] (setting [6]) was less than 3 throughout.
“MASIVVPGSAAAADNPYQRGPNPTQASVAANRGTFATAETSVGGGNGFGGAKIYYPTDTSQGTFGAIAVVPGYTATWAAEGAWMGHWLSSFGFVVIGIDTNSRNDNDTARGTQLLAALDYLTQRSSVRARVDPNRLAVMGHSMGGGGAISAALRRPTLKAAIGNAPFSPSQNLSTMRVPTALLAGQRDGTVTPSLVSGYYNQIPASTEKMYLELTGAGHGFPTSNNSVATRKWVPWMKIFLDQDTRYQQFLCPLLDNTGISAYRSTCPLIPGDPAPGTTFSLAGSASGKCVDVPGGTQTNGAGLIIWPCRGVTNQRWAQTAAGELRIYDNAKCMDANASGQGARVTINSCHGGASQKWTVNTNGTVTNSASGRCLEAVGTADDAPVVVNTCNGGSGQTWAKRA [TEP164]”: the melting temperature in series [1] turned out to be 64 C. In series [2], the “purified protein yield per well” value came to 192 µg. Moreover, the PET hydrolysis in series [3] (setting [18]) was less than 3; in series [3] (setting [4]), 7; in series [3] (setting [5]) it was 25; in series [3] (setting [6]), 31; in series [3] (setting [19]), less than 3; in series [3] (setting [7]) it was less than 3. Further, the PET hydrolysis in series [3] (setting [8]) and in series [3] (setting [9]) was less than 3 each time.
“MIATIPDGSAAAAADDNPYQRGPDPTVASVAAQYGPFATAQITVPPGNGFNGGFIYYPTDTSHTYGAVAIVPGYTALFANEEAWMGPRLASFGFVVIGVETNSRNDYDTARGTQLLAALDYLTNSSAVRDRVDRNRLAVIGHSMGGGGSLYAATQRPSLKAAIGLAPFKPSGNLASDTVPTMIIGGINDTTVTPSYLDGLYPTLPAATPGAYLQLANADHLYFTRPNDIELRSQIEWLKIFVDNDARYTQFLCPSIKDTTGIARSNVKCSTIPSGGSTPPSSPPPVPSGPQRILAAQSGRCVDVPNATHNNGTRVQLYDCNGQANQQWTSTSSKQLTVYGNVCLDAAGSGNGAAVQIYSCNGQSNQQWNVNANGTITGVQSGRCLDVWGTGNGQQIQLWDCNGQANQRFSLS [TEP181]” displayed a melting temperature in series [1] of 50.2 C. Besides, the “purified protein yield per well” value in series [2] amounted to 249 µg. The PET hydrolysis in series [3] (setting [10]), in series [3] (setting [11]), in series [3] (setting [12]), in series [3] (setting [13]), in series [3] (setting [14]) and in series [3] (setting [15]) was less than 3 each time. The PET hydrolysis in series [3] (setting [16]) was less than 3; in series [3] (setting [17]), less than 3; in series [3] (setting [18]) it was 4.5 ± 0.71; in series [3] (setting [4]), 12.5 ± 0.71; in series [3] (setting [5]), 11 ± 1.4; in series [3] (setting [6]) it was less than 3. Also, the PET hydrolysis in series [3] (setting [19]), in series [3] (setting [7]), in series [3] (setting [8]) and in series [3] (setting [9]) was less than 3 in each case.
